Assay results taken from patent publication US20210284729A1.
“And” between values parts separate entries of the source, which are not always exact repeats. Identical values can stand only once.

Biological target: 4-1BB (CD137) on T cells (human) (UniProt Q07011)
Experiment: cell-based or functional assay

4-1BB (CD137) on T cells (human), sequence (Q07011 24-255): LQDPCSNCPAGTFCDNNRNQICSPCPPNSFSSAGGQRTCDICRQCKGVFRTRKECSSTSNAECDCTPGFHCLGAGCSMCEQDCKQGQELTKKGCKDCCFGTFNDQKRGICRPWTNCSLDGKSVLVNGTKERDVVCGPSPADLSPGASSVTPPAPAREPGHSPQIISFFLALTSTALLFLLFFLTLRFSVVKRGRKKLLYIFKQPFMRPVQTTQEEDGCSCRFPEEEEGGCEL

IFN-gamma secretion by T cells (ELISA, 24 h): > 10 fold | T cell expansion (T cell number at day 6 to day 0): 2 fold and 3 fold | TNF-alpha secretion by T cells (ELISA, 24 h): < 8 fold | expansion of autologous AML patient T cells after 96 h of co-culture: 3 fold
Substance: co-stimulatory 4-1BB ligand (CD137L) expressed on the surface of gene-modified hMSCs (SCP-1) (from UniProt P41273 1-254)
